Data reported in US20170002074A1 (Genentech, published 2017).
Where two headings read alike, the source gives them in different places.

Assays:
Cynomolgus monkey CD33 [1] = target: T1, Cynomolgus monkey CD33 (cynomolgus monkey); assay: Scatchard analysis, [125I]-labeled antibody competed by unlabeled antibody, HEK293AD cells stably expressing cynomolgus CD33
T1 construct: Used for recombinant CD33 on HEK293AD cells and endogenous CD33 on cynomolgus CD14+/CD33+ myeloid cells; also called cynoCD33; cyno CD33

Human CD33 [2] = target: T2, Human CD33 (human, UniProt P20138 18-364); assay: FACS titration on EOL-1 cells (endogenous huCD33), geometric mean fluorescence, 0.1-10 µg/ml antibody
T2 construct: One molecule is used for recombinant CD33 on HEK293AD/293 cells and for endogenous human CD33 on tumor or myeloid cells; the cell is named under assay; also called huCD33; hu CD33

Human CD33 [3] = target: T2, Human CD33; assay: Scatchard analysis, [125I]-labeled antibody competed by unlabeled antibody, Molm-13 cells (endogenous CD33)
Human CD33 [4] = target: T2, Human CD33; assay: Scatchard analysis, [125I]-labeled antibody competed by unlabeled antibody, HEK293AD cells stably expressing human CD33
[5] = target: T3, Construct-88B: CD33 Ig-like V (M17-V136 including spacer H137-H143) linked to an irrelevant Ig-like C … (human); assay: FACS on 293 cells transiently transfected with construct 88B, Dylight-650 labelled antibody at 1-10 µg/ml
T3 construct: also called Ig-like V domain of huCD33

[6] = target: T3, Construct-88B: CD33 Ig-like V (M17-V136 …); assay: FACS, Dylight-650 labeled antibody (1-10 ug/ml) on 293 cells transiently transfected with construct 88B
[7] = target: T4, Construct-88: irrelevant Ig-like V linked to a CD33 Ig-like C (R144-Q228 including TM/CD L229) (human); assay: FACS on 293 cells transiently transfected with construct 88, Dylight-650 labelled antibody at 1-10 µg/ml
T4 construct: N-terminal or cytoplasmic tags were attached

huCD33 R69G variant [8] = target: T5, huCD33 R69G variant (human, UniProt P20138 18-364); assay: FACS, direct Dylight 488 conjugate, on 293AD cells labelled 'SNPG69R', taken as the SNP variant of paragraph 650
T5 construct: also called G69 CD33; SNP R69G (r2455069)

huCD33 R69G variant [9] = target: T5, huCD33 R69G variant; assay: as above; remark: listed apart in the source
Cynomolgus monkey CD33 [10] = target: T1, Cynomolgus monkey CD33; assay: Scatchard analysis, HEK293AD cells stably expressing cynomolgus CD33; Scatchard analysis on 293-cynCD33 cells
Cynomolgus monkey CD33 [11] = target: T1, Cynomolgus monkey CD33; assay: FACS, HEK293AD cells stably expressing cynomolgus CD33

Row | Binder | Kd (Cynomolgus monkey CD33 [1]) | Kd (Human CD33 [3]) | Kd (Human CD33 [4]) | further results
1 | 9C3 (antibody, V domains shown, atypical N-linked glycosylation site in the heavy chain between CDR2 and CDR3 at position 69 (kabat #)) VH: EVQLVESGGALIQPGGSLRLSCVASGFTISGNYMSWVRQAPGKGLEWVSLIYSGDSTYYADSVKGRFNISRDISKNTVYLQMNSLRVEDTAVYYCVRDGYYVSDMVVWGKGTTVTVSS VL: DIQMTQSPSSLSASVGDRVTITCRASQGIRNDLGWYQQKPGKAPKRLIYAASSLQSGVPSRFSGSGSGTEFTLTISSLQPEDFATYYCLQHNSYPWTFGQGTKLEIK | 0.6 nM | 5.8 nM | 0.8 nM | EC50 (Human CD33 [2]): 0.54 µg/mL
2 | 9C3.4 (antibody, V domains shown, Variant of 9C3 with the heavy chain N-glycosylation site removed) VH: EVQLVESGGALIQPGGSLRLSCVASGFTISGNYMSWVRQAPGKGLEWVSLIYSGDSTYYADSVKGRFAISRDISKNTVYLQMNSLRVEDTAVYYCVRDGYYVSDMVVWGKGTTVTVSS VL: DIQMTQSPSSLSASVGDRVTITCRASQGIRNDLGWYQQKPGKAPKRLIYAASSLQSGVPSRFSGSGSGTEFTLTISSLQPEDFATYYCLQHNSYPWTFGQGTKLEIK |  | 2.7 nM |  | EC50 (Human CD33 [2]): 0.23 µg/mL
3 | 9C3.2 (antibody, V domains shown, Variant of 9C3 with the heavy chain N-glycosylation site removed) VH: EVQLVESGGALIQPGGSLRLSCVASGFTISGNYMSWVRQAPGKGLEWVSLIYSGDSTYYADSVKGRFTISRDISKNTVYLQMNSLRVEDTAVYYCVRDGYYVSDMVVWGKGTTVTVSS VL: DIQMTQSPSSLSASVGDRVTITCRASQGIRNDLGWYQQKPGKAPKRLIYAASSLQSGVPSRFSGSGSGTEFTLTISSLQPEDFATYYCLQHNSYPWTFGQGTKLEIK |  | 2 nM |  | EC50 (Human CD33 [2]): 0.46 µg/mL
4 | 9C3.3 (antibody, V domains shown, Variant of 9C3 with the heavy chain N-glycosylation site removed) VH: EVQLVESGGALIQPGGSLRLSCVASGFTISGNYMSWVRQAPGKGLEWVSLIYSGDSTYYADSVKGRFSISRDISKNTVYLQMNSLRVEDTAVYYCVRDGYYVSDMVVWGKGTTVTVSS VL: DIQMTQSPSSLSASVGDRVTITCRASQGIRNDLGWYQQKPGKAPKRLIYAASSLQSGVPSRFSGSGSGTEFTLTISSLQPEDFATYYCLQHNSYPWTFGQGTKLEIK |  | 2.2 nM |  | EC50 (Human CD33 [2]): 0.42 µg/mL
5 | 9C2 (antibody, V domains shown) VH: QVQLVQSGAEVKKPGSSVKVSCKASGDTFSSYSISWVRQAPGQGLEWMGEIIPIFGTADYAQKFQGRVTITADISTTTAYMELSSLRSEDTAVYYCARTWADAFDIWGQGTMVTVSS VL: not shown | 0.7 nM | 10.3 nM | 6.5 nM | Geom. Mean:FL4-H [5]: 366; fold binding over isotype control [6]: ≥ 100 fold; Geom. Mean:FL4-H [7]: 11.2; Geom. Mean:FL1-H (huCD33 R69G variant [8]): 71.7
6 | 27C6 (antibody, V domains shown) VH: EVQLQQSGPELVKPGASVKVSCKASGYAFTSYNMYWVKQSHGKSLEWIGYIDPYNGGTRHNQKFKDKATLTVDKSSSTAYMHLNSLTSEDSAVYYCASQNYEYFDYWGQGTTLTVSS VL: DIVLTQSPKFMSTSVGDRVSITCKASQDVGDAVAWYQQKPGQSPKLLFYWTSTRHTGVPDRFTGSGSGTEFTLTIRNVQSEDLADYFCQQYRSTPLTFGSGTKVEIK | 4.5 nM | 23 nM | 13.4 nM | Geom. Mean:FL1-H (huCD33 R69G variant [9]): 32.3
7 | 15G15 (antibody, V domains shown) VH: QVQLVQSGAEVKKPGSSVKVSCKASGGIFSNHAISWVRQAPGQGLEWMGGIIPIFGTANYAQKFQGRVTITADESTSTAFMELSSLRSEDTAVYYCAREWADVFDIWGQGTMVTVSS VL: not shown |  |  |  | Geom. Mean:FL1-H (huCD33 R69G variant [8]): 123
8 | 15G15.33 (antibody, V domains shown, Variant of 15G15) VH: QVQLVQSGAEVKKPGSSVKVSCKASGGIFSNHAISWVRQAPGQGLEWMGGIIPIFGTANYAQKFQGRVTITADESTSTAFMELSSLRSEDTAVYYCAREWADVFDIWGQGTMVTVSS VL: EIVLTQSPLSLPVTPGEPASISCRSSQSLLHSNGYNYLDWYLQKPGQSPQLLIYLGVNSVSGVPDRFSGSGSGTDFTLKISRVEAEDVGVYYCMQALQTPWTFGQGTKVEIK | 0.3 nM | 0.9 nM | 0.7 nM | 
9 | 15G15.83 (antibody, V domains shown, Variant of 15G15) VH: QVQLVQSGAEVKKPGSSVKVSCKASGGIFSNHAISWVRQAPGQGLEWMGGIIPIFGTANYAQKFQGRVTITADESTSTAFMELSSLRSEDTAVYYCAREWADVFDIWGQGTMVTVSS VL: EIVLTQSPLSLPVTPGEPASISCRSSQSLLHSNGYNYLDWYLQKPGQSPQLLIYLGAYTVSGVPDRFSGSGSGTDFTLKISRVEAEDVGVYYCMQALQTPWTFGQGTKVEIK | 0.2 nM | 0.5 nM | 0.5 nM | 
10 | 7A1 (antibody, V domains shown) VH: QVQLVQSGAEVKKPGSSVKVSCKASGGTFTSYAVSWVRQAPGQGLEWMGGIIPIFGTADYAQKFQGRVTITADESTSTAYMELSSLRSEDTAVYYCARELADVFDIWGQGTMVTVSS VL: not shown | 0.54 nM |  |  | Geom. Mean:FL4-H [5]: 772; Geom. Mean:FL4-H [7]: 13; Geom. Mean:FL1-H (huCD33 R69G variant [8]): 125
11 | 15G15.88 (antibody, V domains shown, Variant of 15G15) VH: QVQLVQSGAEVKKPGSSVKVSCKASGGIFSNHAISWVRQAPGQGLEWMGGIIPIFGTANYAQKFQGRVTITADESTSTAFMELSSLRSEDTAVYYCAREWADVFDIWGQGTMVTVSS VL: EIVLTQSPLSLPVTPGEPASISCRSSQSLLHSNGYNYLDWYLQKPGQSPQLLIYLGNYRVSGVPDRFSGSGSGTDFTLKISRVEAEDVGVYYCMQALQTPWTFGQGTKVEIK | 0.2 nM | 0.8 nM | 0.7 nM | 
12 | 33F9 (antibody, V domains shown) VH: EVQLQQSGPELVKPGASVKMSCKASGYTFTSYVMHWMKQKPGQGLEWIGYINPYNDGTKYNDKFKGKATLTSDKSSSTAYMELSSLTSEDSAVYYCARGSNYEDFAMDYRGQGTSVTVSS VL: DIVMTQSPASQSASLGESVTITCLASQTIGTWLAWYQQKPGKSPQLLIYAATTLADGVPSRFSGSGSGTKFSFKISSLQAEDFVSYYCQQLYSTPLTFGGGTKVEIK | 0.92 nM | ~9.2 nM | 8.7 nM | Geom. Mean:FL1-H (huCD33 R69G variant [9]): 85.2
13 | 33H4 (antibody, V domains shown) VH: EVQLQQSGAELVKPGASVKMSCKAFGYTFTTFPIEWMKQSHGKSLEWIGNFHPYNDQTKYNEEFKGRAKLTIDRSSSTVYLELGRLTSDDSAVYYCARGYYYAFDFWGQGTTLTVSS VL: DIQMTQSPASLTVSLGQRATISCRASESVDSYGNSYLHWYQQKPGQPPQLLIYLASNLESGVPARFSGSGSRTDFTLTIDPVEADDAATYYCQQNNEDPWTFGGGTKVEIK |  | 0.6 nM | 2.4 nM | Geom. Mean:FL1-H (huCD33 R69G variant [9]): 78.7; binding result (Cynomolgus monkey CD33 [10]): no binding
14 | 10D3 (antibody, V domains shown) VH: EVQLVESGAEVKKPGSSVKVSCKASGGTLISHAISWVRQVPGQGLEWMGGIIPIFGSANYAQKFQGRVTITADDSTNTAYLELSSLRSEDTAVYYCARELLDVFDIWGQGTMVTVSS VL: not shown | 0.7 nM | 2.6 nM | 3.3 nM | Geom. Mean:FL4-H [5]: 684; fold binding over isotype control [6]: ≥ 100 fold; Geom. Mean:FL4-H [7]: 12.1; Geom. Mean:FL1-H (huCD33 R69G variant [8]): 103
15 | 23E4 (antibody, V domains shown) VH: EVQLQQSGAELVRPGASVKLSCKASGYTFTNYWMNWVKQRPGQGLEWIGMIDPSDNETHYSQMFKDKATLTVDKSSSTAYMQLISLTSEDSAVYYCAGYYGNFGWFVYWGQGTLVTVSA VL: DIFMTQTPLSLPVSLGDPASISCRSSQTIVHSNGNTYLEWYLQKPGQSPKLLIYKVSNRFSGVPDRFSGSGSGTDFTLKISRVEAEDLGVYYCFQGSHVPPTFGGGTKVEIK |  |  |  | Geom. Mean:FL1-H (huCD33 R69G variant [9]): 50.1; binding result (Cynomolgus monkey CD33 [11]): no binding (tested: 1 mg/ml)
